Assay results published in PMC9871958 (Protein & Cell, 2022).

Legend:
[1] = target: T1, SARS-CoV-2 RBD protein (SARS-CoV-2, UniProt P0DTC2); assay: cell-based or functional assay
[2] = target: T1, SARS-CoV-2 RBD protein; assay: SPR; settings: both partners purified

B1: 1F (antibody, V domains shown)
VH: EVQLVESGPGLVKPSETLSLTCTVSGGSISSSSYYWGWIRQPPGKGLEWIGSIYYRGSTYYNPSLKSRVTISVDTSKNQFSLKLSSVTAADTAVYYCARHVRSAYYYGSGSYRDEGNWFDPWGQGTLVTVSS
VL: QSVLTQPPSVSGAPGQRVTISCTGTRSNIGAGHDVHWYQQLPGTAPKLLIYGNNNRPSGVPDRFSGAKSGTSASLAITGLQAEDEADYYCQSYDRTLTSYVFGTGTKVTVL
[1]
  IC50 of neutralisation of authentic SARS-CoV-2 virus (1F blocks RBD-ACE2): 0.018 µg/mL
[2]
  Kd: 77 pM
